The values below come from patent publication US20230349919A1 (Regeneron, published 2023).

Residue numbers refer to the chain shown, from its start. A value given as a limit tells only on which side of the number the result lay.

In experiment [1] the target is T1, Ole e 1 (olive, UniProt P19963 1-145).
T1 construct: Also used oligonucleotide-barcoded for cell staining; also called olive allergen; negative control allergen
T1 sequence (looked up): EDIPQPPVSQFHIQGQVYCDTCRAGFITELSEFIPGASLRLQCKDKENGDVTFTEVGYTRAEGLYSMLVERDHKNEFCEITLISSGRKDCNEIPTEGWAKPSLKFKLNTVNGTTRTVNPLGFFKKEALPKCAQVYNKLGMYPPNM
Kind of experiment: barcoded-antigen count on source cell.

Experiment [2] concerns the target T2, Der f 1 (house dust mite, UniProt P16311 99-321).
T2 construct: Also used oligonucleotide-barcoded for cell staining
T2 sequence (looked up): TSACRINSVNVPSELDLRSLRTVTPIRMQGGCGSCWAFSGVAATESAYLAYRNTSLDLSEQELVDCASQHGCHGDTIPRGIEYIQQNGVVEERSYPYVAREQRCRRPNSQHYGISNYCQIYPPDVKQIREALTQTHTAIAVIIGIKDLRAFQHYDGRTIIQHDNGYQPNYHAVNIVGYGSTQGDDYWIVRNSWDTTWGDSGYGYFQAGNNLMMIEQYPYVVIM
Kind of experiment: barcoded-antigen count on source cell.

Experiment [3] addresses T3, Der p 2 (house dust mite, UniProt P49278 18-146).
T3 construct: Also used oligonucleotide-barcoded for cell staining
T3 sequence (looked up): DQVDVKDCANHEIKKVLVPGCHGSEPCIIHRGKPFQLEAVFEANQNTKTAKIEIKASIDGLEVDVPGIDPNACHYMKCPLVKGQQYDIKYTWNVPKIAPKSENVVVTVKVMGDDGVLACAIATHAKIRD
Kind of experiment: barcoded-antigen count on source cell.

For experiment [4], the target named is T2, Der f 1. Kind of experiment: barcode rank score against control Ole e 1.
For experiment [5], the target named is T3, Der p 2. Kind of experiment: barcode rank score against control Ole e 1.
Experiment [6] addresses T1, Ole e 1. Kind of experiment: centered log-ratio of barcode count. The source says:
(§1) The barcoded antigen library was mapped by the CellRanger software to a custom short-read reference that contained the DNA tag sequences of the four barcoded antigens, namely, Der p 1, Der p 2, Der f 1 and Ole e 1. These tag sequences were quantified across all cells and were normalized by taking the centered log-ratio (CLR) per barcoded antigen across each sample capture. In addition, background antigen signal for each barcoded antigen was removed by DSB (Denoised and Scaled by Background). Both the CLR and the DSB normalized values were used to quantify the target antigen signals, namely, those for Der p 1, Der p 2 and Der f 1, against the control signal, namely, that for Ole e 1.

Experiment [7] addresses T2, Der f 1. Kind of experiment: centered log-ratio of barcode count.
Excerpt: as §1

Experiment [8] concerns the target T3, Der p 2. Put plainly: centered log-ratio of barcode count.
Excerpt: as §1

In experiment [9] the target is T3, Der p 2. Put plainly: ELISA, coated Der p2. The procedure:
After selecting allergen-specific antibodies, relative binding to Der p 1, Der p 2, and Der f 1 were quantified by ELISA. […] Specifically, binding microtiter plates were coated with 100 μl of 2 μg/mL of natural Der p 1, Der p 2, Der f 1, and Ole e 1 in PBS overnight at 4′C. IgE antibodies were prepared at a concentration of 1 μg/mL and serially diluted three-fold in PBS with 0.5% w/v BSA. After washing with 0.05% v/v Tween® 20 in PBS and blocking in PBS with 0.5% w/v BSA, 100 μl of the diluted IgE antibodies were transferred to the plates and incubated for one hour at ambient temperature. Subsequently, 100 μL of anti-mouse IgE antibody conjugated to horse-radish peroxidase (HRP) diluted at 1:5000 was added. The plates were then incubated for one hour at ambient temperature, and washed in 0.05% v/v/Tween® 20 in PBS. Subsequently, the HRP substrate 3,3′,5,5′-tetramethylbenzidine (TMB) was added. The reaction was stopped (with 100 μL of sulfuric acid 2.0 N) and optical density values determined using a plate reader at 450 nm.
On the technique in general: ELISA stands for enzyme-linked immunosorbent assay.

Experiment [10] concerns the target T4, human IL-4 Receptor α (hIL-4Rα) ectodomain (Example 17) (human, UniProt P24394 26-232, AlexaFluor 647 label, or biotin bound to PE-labeled streptavidin tetramer).
T4 construct: extracellular domain; Used as AF647-labelled monomer (5 nM) and as biotinylated ectodomain on SA-PE tetramer; also called hIL-4Rα-AlexaFluor647 (monomeric); hIL-4Rα-biotin-StAv-PE (tetrameric)
Put plainly: method not stated.

Experiment [11] has as its target T4, human IL-4 Receptor α (hIL-4Rα) …. Put plainly: Biacore at +25°C. (SPR reads the build-up and loss of mass on a sensor chip optically.)
Experiment [12] concerns the target T3, Der p 2. Kind of experiment: antigen specificity score against Ole e 1 from barcode counts of single IgE PCs [cont.]. The protocol: Antigen specificity score (AgSS) for IgG were calculated by subtracting the quantile of hIL-6Rα barcoded UMI counts multiplied by a penalty factor (x) from the quantile of hIL-4Rα barcoded UMI counts, AgSS=Q_hIL-4Rα-Q_hIL-6Rα^x. AgSS for IgE were calculated with a similar formula for mouse and human single cell data. For IgE scores the target antigens were either Der p1, Der p2 or Der f1 and the control was always Ole e1.
Following processing of the three single-cell libraries, the gene expression and V(D)J region sequencing data were used to subset PCs with a valid IgE constant region and detectable expression of IgE and CD79a but lacking the expression of Ms4a1 and CD19 typically found in non-PC B cells. IgE-expressing PCs were then assessed for differential expression against additional IgA, IgG, and IgM plasma cell isotypes to further characterize the unique transcriptional signature of IgE-secreting PCs. IgE-secreting PCs were then assessed for antigen specificity by comparing the normalized levels of the target antigens, namely, Der p 1, Der p 2, or Der f 1, against the normalized level of the control antigen Ole e 1. This was performed by calculating an empirical score for each target antigen and subtracting the […] with a penalty factor. The formula used to do is set forth below: […]

The target of experiment [13] is T3, Der p 2. Put plainly: barcoded antigen sequencing of single IgE PCs with trapped IgE.
Experiment [14] has as its target T3, Der p 2. Put plainly: barcoded antigen sequencing of single IgE PCs with trapped IgE [cont.].
Excerpt: as §1

B1: IgE mAb 1_2 (antibody, V domains shown)
VH: QIQLVQSGPELKKPGETVKISCKASGYTFTTYGMSWVKQAPGKGLKWMGWINTYSGVPTYADDFKGRFVFSLETSASTAYLQINNLKNEDTATYFCARAYYYGSSYLIWYFDVWGTGTTVTVSS
VL: NIVLTQSPASLAVSLGQRATISCRASESVDSYGNSFMHWYQQKPGQPPKLLIYLASNLESGVPARFSGSGSRTDFTLTIDPVEADDAATYYCQQNNEDPYTFGGGTKLEIK
notes: IgE (IGHE, IGKC) from HDM-exposed mouse, BoneMarrow
Consider B1, for which the Olee1_ab_raw with Ole e 1 [1] amounted to 0 counts. Also, in the experiment with Der f 1 [2], the Derf1_ab_raw came out at 37 counts. Besides, the Derp2_ab_raw with Der p 2 [3] came to 60 counts. In the experiment with Der f 1 [4], this molecule displayed a Derf1_ab_rank of 0.982. In the experiment with Der p 2 [5], this molecule came in with a Derp2_ab_rank of 1. Also, the Olee1_ab_clr with Ole e 1 [6] was -1.12. Also, the Derf1_ab_clr in the experiment with Der f 1 [7] was 1.32. Also, the Derp2_ab_clr in the experiment with Der p 2 [8] is 1.65.

B2: IgE mAb 21_2 (antibody, V domains shown)
VH: QVQLQQSGPELVKPGASVKISCKAPGNAFSYSWMNWVKQRPGKGLEWVGRIYPGDGDTNYNGKFMGKATLTADKSSNTAYIQLSSLTSEDSAVYFCARSGGGTLYWYFDVWGTGTTVTVSS
VL: DIVMTQSPSSLALSVGQKVTMNCRSSQSLLNSFNQKNYLAWFQQKPGQSPRLLIYFASTRESGVPDRFIGSGSGTDFTLTISSVQAEDLADYFCQQHYNTPLTFGAGTTLELK
notes: IgE (IGHE, IGKC) from HDM-exposed mouse, LymphNode
A word on the EC50 (read off the curve): it is the concentration giving half of the maximal effect. Higher therefore signals weaker potency. Molecule B2 came in with an Olee1_ab_raw with Ole e 1 [1] of 4 counts. In the experiment with Der f 1 [2], this molecule yielded a Derf1_ab_raw of 1 counts. In the experiment with Der p 2 [3], this molecule yielded a Derp2_ab_raw of 215 counts. The half-maximal effective concentration (EC50 (read off the curve)) in the experiment with Der p 2 [9] was around 0.2 nM. The molecule also returned a Derf1_ab_rank with Der f 1 [4] of -0.386. The molecule also displayed a Derp2_ab_rank with Der p 2 [5] of 0.412. Also, the Olee1_ab_clr with Ole e 1 [6] turned out to be 0.826. Further, the Derf1_ab_clr in the experiment with Der f 1 [7] was -0.795. In addition, the Derp2_ab_clr with Der p 2 [8] came to 4.01.

B3: ab_1 (antibody, V domains shown)
VH: EVQLVESGGGLEQPGGSLRLSCAGSGFTFSDYAMTWVRQAPGKGLEWVSSISGSGGNTYYADSVKGRFTISRDNSKNTLYLQMNSLRAEDTAVYYCAKDALTIAIRPYYYGLDVWGQGTTVTVSS
VL: DIVMTQSPLSLPVTPGEPASISCRSSQSLDYSYGYNYLDWYLQKSGQSPQLLIYLASNRASGVPDRFSGSGSGTDFTLKISRVEAEDVGFYYCMQSLSTPYTFGQGTKLEIK
Usually Kd stands for the concentration at which binding is half-saturated. Low readings indicate tighter binding, high ones weaker binding. In the case of B3, the affinity in experiment [10], expressed as Kd, was 1.68 nM. In experiment [11], the “t1/2 pH7.4” value is above 116 min.

B4: ab_3 (antibody, V domains shown)
VH: B3 VH with S30R, A100R, T102S, I103K, A104T
VL: B3 VL with D30L, Y33T, A56G
For the molecule B4, the affinity in [10], expressed as Kd, was 14.2 nM. Besides, in experiment [11], the “t1/2 pH7.4” value stood at 10.6 min.

B5: ab_2 (antibody, V domains shown)
VH: B3 VH with S30R, G56S, K98R, A100R, I103A, I105V
VL: B3 VL with Y33S, S98Q
The molecule B5 returned a Kd in experiment [10] of 3.26 nM. For the same molecule, the “t1/2 pH7.4” value in [11] was determined as 21.7 min.

B6: Candidate ID 16 (antibody, V domains shown)
VH: EVHLQQSGPDLVKPGASVMISCQASGYSFTAYYINWVKQSPEKSLEWIGEINPGSGGVIYNRKFEAKATLIVDKSSNTAFMLLTRLTSEDSAIYYCARKGFYQFDYWGQGTTLTVSS
VL: SVVMTQIPKFLVVSAGDRVTITCKASQSVNDGVFWYQQKTGQSPKLVIYHTSNRYTGVSDRFTGSGYGTEFTFTISAVQSEDLAIYFCQQDYTSPLTFGGGTRLEIK
notes: IgE PCs LN
Consider B6, for which the “Antigen Score” value with Der p 2 [12] stood at 0.336. The “Raw Antigen Barcode Count” value in the experiment with Der p 2 [13] stood at 6. Besides, in the experiment with Der p 2 [14], the “Normalized Barcode Count” value turned out to be 0.58.

B7: IgE mAb 17_2 (antibody, V domains shown)
VH: B6 VH
VL: B6 VL
notes: as for B2
The molecule B7 showed an Olee1_ab_raw with Ole e 1 [1] of 3 counts. In addition, in the experiment with Der p 2 [3], the Derp2_ab_raw came out at 6 counts. Moreover, the binding result with Der p 2 [9] was “no binding (tested: about 6e-9 M (log10 M about -8.25))”. The molecule also yielded a Derp2_ab_rank with Der p 2 [5] of 0.336. Further, the Olee1_ab_clr with Ole e 1 [6] is 0.603. For the same molecule, in the experiment with Der p 2 [8], the Derp2_ab_clr turned out to be 0.58.

B8: IgE mAb 13_2 (antibody, V domains shown)
VH: EVQLQQSGPELVKPGASVKISCKASGYTFTDYYMNWVKQSHGKSLEWIGDINPNNGGTSYNQKFKGKATLTVDKSSSTAYMELRSLTSEDSAVYYCAYGPPRGPPWFAYWGQGTLVTVSA
VL: DIVLTQSPASLAVSLGQRATISCRASKSVSTSGYSYMHWYQQKPGQPPKLLIYLASNLESGVPARFSGSGSGTDFTLNIHPVEEEDAATYYCQHSRELPWTFGGGTKLEIK
notes: as for B2
Take B8: the Olee1_ab_raw with Ole e 1 [1] was found to be 1 counts. For the same molecule, the Derp2_ab_raw in the experiment with Der p 2 [3] is 46 counts. In the experiment with Der p 2 [5], this molecule yielded a Derp2_ab_rank of 0.858. The Olee1_ab_clr with Ole e 1 [6] stood at 0.0287. The Derp2_ab_clr in the experiment with Der p 2 [8] worked out at 1.62.

B9: IgE mAb 8_2 (antibody, V domains shown)
VH: QVLLKESGPGLVAPSQSLSITCTVSGFSLTSYGVSWVRQPPGKGLEWLGVIWGDGNTDYHSALISRLSIRKDNSKSQVFLKLNSLQTDDTATYYCAIGSPFAYWGQGTLVTVSA
VL: DVLMTQTPLSLPVSLGDQVSISCRSSQNIVHSTGNTYLEWYLQKPGQSPKLLIFKVSNRLSGVPDRFSGSGSGTDFTLNISRVEAADLGIYSCFQGSHVPFTFGSGTKLEIK
notes: as for B1
Turning to B9, the Olee1_ab_raw with Ole e 1 [1] amounted to 0 counts. For the same molecule, the Derp2_ab_raw with Der p 2 [3] amounted to 22 counts. Besides, the Derp2_ab_rank with Der p 2 [5] was found to be 0.837. In addition, the Olee1_ab_clr with Ole e 1 [6] is -1.13. Besides, in the experiment with Der p 2 [8], the Derp2_ab_clr is 0.655.
